Where a chain is given by its changes, count along the chain named. Values belong to the molecule of their own block, whether it stands above or below them.
Key:
[1] = 20-hour stability of [Ala1,Thr2] desulfatohirudin analogs at pH 7 and 60° C. (RP HPLC and anion exchange chromatography); type: physicochemical; conditions: stress conditions: 20 h, 0.5 mg/ml in 20 mM NaP, 300 mM NaCl
Experimental: The compound to be tested was dissolved in 0.5 mg/ml in 20 mM NaP, pH 7, 300 mM NaCl and incubated at 60° C. for 20 h. Samples were taken at times t=0 and t=20 h and analyzed by RP HPLC (Nucleosil®) and anionic exchange chromatography (Mono Q®). The content of newly formed byproducts was calculated.

thrombin = thrombin (Homo sapiens, UniProt P00734); experiment: Comparative Ki value determination on optimized isohirudins (method of Stone and Hofsteenge, chromogenic substrate D-HHT-Gly-Arg-pNA); type: biochemical; conditions: 25° C., pH 8.3, 0.1 M tris, 0.2 M NaCl, 0.1% Triton X-100; Ki = koff/kon; read-out: Ki(app.)
Experimental: Ki values were determined by the method of Stone and Hofsteenge (Biochemistry 25, pages 4622-4628, 1986): 0.2 ml of a 1.25 mM solution of D-HHT-Gly-Arg-pNA was equilibrated at 25° C. with 1.7 ml of 0.1 M tris, 0.2 M NaCl and 0.1% (v/v) Triton X-100 pH 8.3 and 0.1 ml of the isohirudin to be tested in 145 mM NaCl. Binding was started by adding 0.05 ml of thrombin solution. The absorption at 405 nm was recorded for a period of 10-20 min.
The reaction follows the equation:
[P]=vs *t+(vo -v5)(1-e^-k*t)/k+d,
[P]=product concentration (nitroaniline) […]
vs =reaction rate in the equilibrium state
The rate constant k was determined by non-linear regression. Extrapolation of k at various inhibitor concentrations to [1]=0 according to […]
yields the rate constants kon and koff and thus Ki =koff /kon.

[2] = Time course of byproduct formation of desulfatohirudin analogs at pH 6.5 and pH 4, 60° C. (FIG. 4 and FIG. 3); type: physicochemical; conditions: 1 mg/ml in water, pH 4 (FIG. 3) and pH 6.5 (FIG. 4), up to 96 h
Experimental: The purified isohirudins, as lyophilisate, were dissolved at 1 mg/ml in water and adjusted to pH 6.5 with 1 M […]. After sterilization by filtration, […]. Samples were taken at times t=0, 5, 24, 48, 72 and 96 h and analyzed by RP HPLC (Nucleosil®) and ion exchange chromatography (Mono®) for the content of byproducts therein. The purity at time t=x is shown relative to the purity at t=0, with in each case the less favorable value from the two analysis systems being used as bases (FIG. 4).
The purified isohirudins, as lyophilisate, were dissolved at 1 mg/ml in water and adjusted to pH 4 with 1 M acetic acid. Incubation and analyses were carried out as in Example 10 (FIG. 3).

- Ki (thrombin): 200 pM
Molecule: [Ala^1,Thr^2 ] desulfatohirudin [reference compound]
- % newly formed byproducts [1]: 23.0%

- Ki (thrombin): 370 pM
Molecule: [Ala^1,Thr^2,Glu^33,Glu^53 ] desulfatohirudin
- Stability (byproduct formation over time) [2]: simple exchange of the aspartic acid does not have the optimal effect

- Ki (thrombin): 610 pM
Molecule: [Ile^1,Thr^2 ] desulfatohirudin [reference compound]

- Ki (thrombin): 140 pM
Molecule: [Leu^1,Thr^2 ] desulfatohirudin [reference compound]

- Ki (thrombin): 350 pM
B1: [Ala^1 Thr^2,Glu^33,Ala^54 ] desulfatohirudin (protein)
chain: ATYTDCTESGQNLCLCEGSNVCGQGNKCILGSEGEKNQCVTGEGTPKPQSHNDADFEEIPEEYLQ
modifications: ends and bridges not checked

- Ki (thrombin): 160 pM
B2: [Ala^1,Thr^2,Glu^33 ] desulfatohirudin (protein)
chain: B1 chain with A54G
modifications: ends and bridges not checked
- % newly formed byproducts [1]: 15.2%

- Ki (thrombin): 300 pM
B3: [Ala^1,Thr^2,Glu^33,Gln^52,Glu^53,Glu^55 ]-desulfatohirudin (protein)
chain: B1 chain with N52Q, D53E, A54G, D55E
modifications: ends and bridges not checked
- % newly formed byproducts [1]: 3.2%
- Stability (byproduct formation over time) [2]: superior stability

- Ki (thrombin): 380 pM
B4: [Ala^1,Thr^2,Glu^53 ] desulfatohirudin (protein)
chain: B1 chain with E33D, D53E, A54G
modifications: ends and bridges not checked

- Ki (thrombin): 220 pM
B5: [Ala^1,Thr^2,Gln^52,Glu^53,Ala^54 ] desulfatohirudin (protein)
chain: B1 chain with E33D, N52Q, D53E
modifications: ends and bridges not checked

- Ki (thrombin): 310 pM
B6: [Ala^1,Thr^2,Glu^33,Gln^52,Glu^53,Ala^54 ]-desulfatohirudin (protein)
chain: B1 chain with N52Q, D53E
modifications: ends and bridges not checked
- Stability (byproduct formation over time) [2]: superior stability

- Ki (thrombin): 190 pM
B7: [Ala^1,Thr^2,Gln^52,Glu^53,Glu^55 ] desulfatohirudin (protein)
chain: B1 chain with E33D, N52Q, D53E, A54G, D55E
modifications: ends and bridges not checked
- % newly formed byproducts [1]: 14.6%

- Ki (thrombin): 270 pM
B8: [Ala^1,Thr^2,Ala^54 ] desulfatohirudin (protein)
chain: B1 chain with E33D
modifications: ends and bridges not checked
